The text below walks through data of patent publication US20240182561A1 (Regeneron, published 2024).

Experiment [1] addresses T1, human CACNG1 expressed on cells (human, UniProt Q06432 1-222). Briefly: cell-based or functional assay.
The target of experiment [2] is T2, mouse CACNG1 expressed on cells (mouse, UniProt O70578 1-223).
T2 sequence (looked up): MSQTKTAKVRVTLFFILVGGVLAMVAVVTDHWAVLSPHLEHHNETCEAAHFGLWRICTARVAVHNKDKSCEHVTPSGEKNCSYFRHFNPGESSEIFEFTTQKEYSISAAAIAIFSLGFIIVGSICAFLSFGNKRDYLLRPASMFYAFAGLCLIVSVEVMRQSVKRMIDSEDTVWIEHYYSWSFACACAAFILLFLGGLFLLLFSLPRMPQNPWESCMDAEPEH
Description: cell-based or functional assay.

Experiment [3] has as its target T2, mouse CACNG1 expressed on cells. Description: imaging cell binding, HEK293/mCACNG1. Here is the method:
(§1) HuSKM were seeded in collagen-coated 96-well plates (Greiner Bio-One #655956) at 8,500 cells/well and grown for 24 hours. The growth media was changed to MyoTonic Differentiation Media (Cook Myosite Cat #MD-5555) and replaced every 2 days. Myotubes were assayed after 6 days of differentiation. C2C12 mouse myoblasts were maintained in DMEM with 10% FBS and 1% penicillin-streptomycin supplement and grown in a 37° C. incubator with 5% CO₂. C2C12 cells were seeded in collagen-coated 96-well plates (Greiner Bio-One #655956) at 10,000 cells/well for the cell binding assay and 5,000 cells/well for the cell killing assay. After 24 hours, growth media was replaced with differentiation media (DMEM with 2% horse serum) and placed in a 37° C. incubator with 7.5% CO₂. C2C12 myotubes were assayed after 3 days of differentiation. HEK293/hCACNG1, HEK293/mCACNG1, and HEK293 cells were seeded at 10,000 cells (cell binding assay) or 2,000 (cell killing assay) per well in 96-well black collagen coated plates (Greiner Bio-One, cat #655956) in complete growth media and grown overnight at 37° C. in 5% CO₂.
(§2) Relative binding of anti-CACNG1 antibodies was assessed across the entire panel of cell lines via imaging analysis. […] After one wash with antibody dilution buffer, samples were fixed in CytoFix (BD Biosciences, Cat #554655) diluted 1:1 in PBS and supplemented with a 1:2000 dilution of Hoechst 33342 (Thermo, Cat #H1399) for 20 minutes on ice. Images were acquired with a 10× objective on the Opera Phenix (Perkin Elmer) and relative fluorescence units (RFU) was determined using Harmony software (Perkin Elmer).

Experiment [4] shares this target. Briefly: imaging cell binding, C2C12 mouse myotubes. The procedure: as §1, §2
The target in experiment [5] is T1, human CACNG1 expressed on cells. Description: imaging cell binding, HEK293/hCACNG1. The procedure: as §1, §2
For experiment [6] the target is unchanged. Briefly: imaging cell binding, HuSKM myotubes. Here is the method:
as §1, §2

Experiment [7] deals with T3, nanodisc embedded human CACNG1 expressed with a C-terminal PADRE-Flag-His tag (human, UniProt Q06432 1-222).
T3 construct: Captured on an anti-His Biacore surface; also called human CACNG1 nanodisc; CACNG1 nanodisc; not shown: C-terminal tag
T3 sequence (Q06432 whole entry): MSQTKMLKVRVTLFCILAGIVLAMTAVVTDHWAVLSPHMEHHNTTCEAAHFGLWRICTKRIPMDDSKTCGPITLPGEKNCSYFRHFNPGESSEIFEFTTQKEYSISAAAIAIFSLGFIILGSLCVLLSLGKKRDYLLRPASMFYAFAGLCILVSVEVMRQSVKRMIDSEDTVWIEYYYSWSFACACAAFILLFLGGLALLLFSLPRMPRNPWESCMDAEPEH
Briefly: SPR, anti-His-captured nanodisc, 25 C. Here is the method:
Equilibrium dissociation constants (KD values) for nanodisc embedded human CACNG1 expressed with a C-terminal […] tag (human CACNG1 nanodisc; concentration 0.82 mg/ml) binding to purified anti-CACNG1 antibodies were determined using a real-time surface plasmon resonance biosensor technology with a Biacore T200 instrument. The CM5 Biacore sensor surface was derivatized by amine coupling with a monoclonal mouse anti-His antibody (Cytiva; Marlborough, MA). All Biacore binding studies were performed in a buffer composed of 0.01M HEPES, 0.15M NaCl, 1 mM CaCl₂, 0.5 mM MgCl₂, pH 7.4 (HBS-N++ running buffer). Different concentrations of anti-CACNG1 antibodies (ranging from 300 nM to 12 nM in 5-fold serial dilutions) prepared in HBS-N++ running buffer were injected over the captured human CACNG1 nanodisc at a flow rate of 30 μL/minute. Antibody association was monitored for 2 minutes while dissociation was monitored in HBS-N++ running buffer for 5 minutes. At the end of each cycle, the human CACNG1 nanodisc capture surface was regenerated using three 10 second injections of 10 mM Gly pH1.5. All binding kinetics experiments were performed at 25° C.
The specific SPR-Biacore sensorgrams were obtained by a double referencing procedure. The double referencing was performed by first subtracting the signal of each injection over a reference surface (anti-His) from the signal over the experimental surface (anti-His captured human CACNG1 nanodisc) thereby removing contributions from refractive index changes. In addition, running buffer injections were performed to allow subtraction of the signal changes resulting from the dissociation of captured antibodies from the coupled anti-His surface. Kinetic association (kₐ) and dissociation ([…]) rate constants were determined by fitting the real-time sensorgrams to a 1:1 binding model using Scrubber v2.0c curve fitting software. Binding dissociation equilibrium constants (KD) and dissociative half-lives (t %) were calculated from the kinetic rate constants as: […]

T1 sequence (Q06432 whole entry): as above

B1: REGN10715 (antibody, human IgG4 S228P, kappa)
heavy: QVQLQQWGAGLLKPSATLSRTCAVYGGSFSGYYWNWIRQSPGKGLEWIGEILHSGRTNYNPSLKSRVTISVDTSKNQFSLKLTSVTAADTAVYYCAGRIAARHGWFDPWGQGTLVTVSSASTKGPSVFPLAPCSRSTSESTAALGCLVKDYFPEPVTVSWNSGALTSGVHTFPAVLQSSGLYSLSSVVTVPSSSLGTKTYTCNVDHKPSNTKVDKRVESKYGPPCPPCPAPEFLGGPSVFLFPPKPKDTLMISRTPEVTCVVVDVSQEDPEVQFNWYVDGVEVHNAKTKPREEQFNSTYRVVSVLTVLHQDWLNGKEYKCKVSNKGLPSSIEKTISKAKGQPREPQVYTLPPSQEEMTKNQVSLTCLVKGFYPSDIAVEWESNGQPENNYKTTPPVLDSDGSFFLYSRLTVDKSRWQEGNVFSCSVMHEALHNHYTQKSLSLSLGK
light: DIQMTQSPSSVSTSVGDRVTISCRASQDIRKWLAWYQQKPGKAPKLLIYATSSLQSGVPSRFSGSGSGTDFTLTISSLQPEDFATYFCQQANSFPFTFGQGTKLEIKRTVAAPSVFIFPPSDEQLKSGTASVVCLLNNFYPREAKVQWKVDNALQSGNSQESVTEQDSKDSTYSLSSTLTLSKADYEKHKVYACEVTHQGLSSPVTKSFNRGEC
notes: hIgG4
As a reminder, the EC50 is the concentration giving half of the maximal effect. One may read the Kd as the concentration at which binding is half-saturated. A high value points to a looser complex. For orientation: koff means the rate constant with which the complex falls apart. A higher koff goes with a short-lived complex. The term kon denotes the rate constant with which the complex forms. For the molecule B1, in experiment [1], the “% KILL, indirect cell killing, HEK293/hCACNG1” value (from here on “% KILL … HEK293/hCACNG1”) worked out at 96.4%; the “% KILL, indirect cell killing, HuSKM” value stood at 99.6%; the “EC50/IC50, indirect cell killing, HEK293/hCACNG1” value (“EC50/IC50 … HEK293/hCACNG1” below) came to 0.000629 nM; the “EC50/IC50, indirect cell killing, HuSKM” value came to 0.0097 nM. In addition, in experiment [2], the “% KILL, indirect cell killing, C2C12” value was 99.8%; the “% KILL, indirect cell killing, HEK293/mCACNG1” value (from here on “% KILL … HEK293/mCACNG1”) was determined as 96.1%; the “EC50/IC50, indirect cell killing, C2C12” value worked out at 0.00469 nM; the “EC50/IC50, indirect cell killing, HEK293/mCACNG1” value (from here on “EC50/IC50 … HEK293/mCACNG1”) is 0.000187 nM. In experiment [3], this molecule displayed a concentration for a half-maximal effect (EC50) of 0.26 nM and a S/N of 69.4 fold. Also, in experiment [4], the midpoint of the response, the EC50, lay at 2.3 nM and the S/N turned out to be 8.4 fold. In experiment [5], this molecule had an EC50 of 2.7 nM and a S/N of 91.3 fold. In addition, in experiment [6], a half-maximal effect (EC50) was put at 0.2 nM and the S/N amounted to 1060 fold. In experiment [7], the Kd was found to be 1.98 nM, the koff turned out to be 0.000301 s⁻¹, the kon is 152000 M⁻¹ s⁻¹ and the “mAb bound at 300 nM” value came to 31 RU. Also, the t1/2 in experiment [7] came to 38.4 min.

B2: REGN7660 (antibody, human IgG4 S228P, kappa, V domains shown)
VH: EVQLVESGGGLVQPGGSLKLSCTASGLTLSDSAMHWVRQASGKGLEWVGRIRNKANRYATEYAASVKGRFTISRDDSKNTAYLQMNSLKTEDTAVYYCTRNWKIFLFDYWGQGTLVTVSS
VL: EIVLTQSPGTLTLSPGERATLSCRASQSVGSKYLAWFQQKRGQAPRLLIYGASSRTSGIPDRISGSGSGTDFTLTISRLEPEDFAVYYCQQYGSSPWTFGQGTKVEIKR
notes: hIgG4
As for B2, in experiment [2], the “% KILL, indirect cell killing, C2C12” value turned out to be 99.8%; the “% KILL … HEK293/mCACNG1” value came to 92.3%; the “EC50/IC50, indirect cell killing, C2C12” value amounted to 0.0237 nM; the “EC50/IC50 … HEK293/mCACNG1” value was 0.0134 nM. Besides, in experiment [3], the 50% effective concentration (EC50) is more than 100 nM and the S/N came out at 7.2 fold. In addition, in experiment [4], the S/N was found to be 1 fold. Also, in experiment [7], the dissociation constant (Kd) came out at 12.6 nM, the koff was 0.0243 s⁻¹, the kon is 1.93e+06 M⁻¹ s⁻¹ and the “mAb bound at 300 nM” value is 23 RU. This molecule also showed a t1/2 in experiment [7] of 0.5 min.

B3: REGN10713 (antibody, human IgG4 S228P, lambda)
heavy: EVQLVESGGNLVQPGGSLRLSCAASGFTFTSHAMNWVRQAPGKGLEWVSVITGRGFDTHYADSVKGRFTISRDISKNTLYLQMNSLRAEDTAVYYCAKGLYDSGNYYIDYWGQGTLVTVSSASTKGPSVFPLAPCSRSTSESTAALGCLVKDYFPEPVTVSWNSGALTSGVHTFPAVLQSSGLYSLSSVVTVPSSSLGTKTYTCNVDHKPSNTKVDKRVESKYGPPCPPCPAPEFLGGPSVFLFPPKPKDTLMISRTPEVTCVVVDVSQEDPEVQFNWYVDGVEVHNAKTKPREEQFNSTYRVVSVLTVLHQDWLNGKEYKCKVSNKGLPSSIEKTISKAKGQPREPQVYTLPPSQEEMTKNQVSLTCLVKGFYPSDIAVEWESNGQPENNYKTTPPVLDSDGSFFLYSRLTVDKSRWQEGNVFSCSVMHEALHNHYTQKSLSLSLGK
light: QSVLTQPPSVSAAPGQKVTISCSGSSSNIGNNYVSWYQQLPGTAPKLLIYDNNKRPSGIPDRFSGSKSGTSATLGITGLQTGDEADYYCGTWDLSLSFNWVFGGGTKLTVLGQPKAAPSVTLFPPSSEELQANKATLVCLISDFYPGAVTVAWKADSSPVKAGVETTTPSKQSNNKYAASSYLSLTPEQWKSHRSYSCQVTHEGSTVEKTVAPTECS
notes: hIgG4
Consider B3, for which, in experiment [2], the “% KILL, indirect cell killing, C2C12” value amounted to 0%; the “% KILL … HEK293/mCACNG1” value was 2.4%; the “EC50/IC50, indirect cell killing, C2C12” value is more than 10 nM; the “EC50/IC50 … HEK293/mCACNG1” value is more than 1 nM. In experiment [3], this molecule registered an EC50 of more than 100 nM and a S/N of 2.7 fold. In experiment [4], this molecule gave a S/N of 2 fold. Moreover, in experiment [7], the dissociation constant Kd amounted to 0.635 nM, the koff was 4.72e-05 s⁻¹, the association rate constant (kon) was 74200 M⁻¹ s⁻¹ and the “mAb bound at 300 nM” value was determined as 53 RU. This molecule also yielded a t1/2 in experiment [7] of 245 min.

B4: REGN10728 (antibody, human IgG4 S228P, kappa)
heavy: QVQLVESGGGVVQPGRSLRLSCTASGITFRNYGMHWVRQAPGKGLEWVAVMWYDGSNKYYADSVKGRFTISGDNSKVYLQMNSLRAEDTAVYYCARRGTIRTAAPFDYWGQGTLVTVSSASTKGPSVFPLAPCSRSTSESTAALGCLVKDYFPEPVTVSWNSGALTSGVHTFPAVLQSSGLYSLSSVVTVPSSSLGTKTYTCNVDHKPSNTKVDKRVESKYGPPCPPCPAPGGGGPSVFLFPPKPKDTLMISRTPEVTCVVVDVSQEDPEVQFNWYVDGVEVHNAKTKPREEQFNSTYRVVSVLTVLHQDWLNGKEYKCKVSNKGLPSSIEKTISKAKGQPREPQVYTLPPSQEEMTKNQVSLTCLVKGFYPSDIAVEWESNGQPENNYKTTPPVLDSDGSFFLYSRLTVDKSRWQEGNVFSCSVMHEALHNHYTQKSLSLSLGK
light: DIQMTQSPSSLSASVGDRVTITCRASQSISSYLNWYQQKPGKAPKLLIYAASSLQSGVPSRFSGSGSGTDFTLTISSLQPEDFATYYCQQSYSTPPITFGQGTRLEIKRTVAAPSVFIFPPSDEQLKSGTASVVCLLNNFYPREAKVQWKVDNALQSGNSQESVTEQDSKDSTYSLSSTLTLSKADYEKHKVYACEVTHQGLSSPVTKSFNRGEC
notes: also called H2aM31929N/REGN10728; CACNG1 hIgG4 uber stealth antibody
As for B4, in experiment [1], the “% KILL … HEK293/hCACNG1” value worked out at 95.8%; the “% KILL, indirect cell killing, HuSKM” value stood at 99.3%; the “EC50/IC50 … HEK293/hCACNG1” value came out at 0.000519 nM; the “EC50/IC50, indirect cell killing, HuSKM” value was determined as 0.0381 nM. In experiment [2], the “% KILL, indirect cell killing, C2C12” value came to 1.6%; the “% KILL … HEK293/mCACNG1” value is 5.1%; the “EC50/IC50, indirect cell killing, C2C12” value is more than 10 nM; the “EC50/IC50 … HEK293/mCACNG1” value was more than 1 nM. Moreover, the S/N in experiment [3] came out at 0.8 fold. In experiment [4], the S/N was 1.8 fold and the binding result is listed as “no binding (tested: 100 nM highest tested)”. Moreover, in experiment [5], a half-maximal response (EC50) required 2.4 nM and the S/N worked out at 138 fold. Also, in experiment [6], the EC50 stood at 1.3 nM and the S/N is 467 fold.

B5: H2aM31944N (antibody, mouse IgG2a, kappa, V domains shown)
VH: QVQLVESGGGVVQPGRSLRLSCEASGITFRNYGMHWVRQAPGKGLEWVAVMWYDGSNKYYADSVKGRFTISRDNSKNTVYLQMNSLRAEDTAVYYCARRGHIATAAPFDYWGQGTLVTVSS
VL: DIQMTQSPSSLSASVGDRVTISCRASQSISSYLNWYQQKPGKAPKVLMYAASSLQSGVPSRFSGSGSGTDFTLTISSLQPEDFATYYCQQSYSTPPITFGQGTRLEIKR
notes: mIgG2a; also called CACNG1 mIgG2a antibody
As to B5, in experiment [1], the “% KILL … HEK293/hCACNG1” value is 95.7%; the “% KILL, indirect cell killing, HuSKM” value amounted to 98.6%; the “EC50/IC50 … HEK293/hCACNG1” value came to 0.000356 nM; the “EC50/IC50, indirect cell killing, HuSKM” value worked out at 0.0116 nM. In experiment [2], the “% KILL, indirect cell killing, C2C12” value came to 0%; the “% KILL … HEK293/mCACNG1” value was found to be 4.3%; the “EC50/IC50, indirect cell killing, C2C12” value is more than 10 nM; the “EC50/IC50 … HEK293/mCACNG1” value is more than 1 nM. In experiment [3], this molecule gave an EC50 of more than 100 nM and a S/N of 2.2 fold. The S/N in experiment [4] turned out to be 0.7 fold. In experiment [5], a half-maximal effect (EC50) was put at 3.3 nM and the S/N is 93.4 fold. In experiment [6], the EC50 turned out to be 0.48 nM and the S/N worked out at 321 fold. Also, in experiment [7], the affinity, expressed as Kd, was 17.1 nM; the koff came out at 0.00395 s⁻¹; the kon turned out to be 231000 M⁻¹ s⁻¹; the “mAb bound at 300 nM” value was 16 RU. The molecule also came in with a t1/2 in experiment [7] of 2.9 min.
